Source: IntAct's records for PubMed 35512704

B1: Mothers against decapentaplegic homolog 4 (Homo sapiens), Q13485 (parent)
chain: MDNMSITNTPTSNDACLSIVHSLMCHRQGGESETFAKRAIESLVKKLKEKKDELDSLITAITTNGAHPSKCVTIQRTLDGRLQVAGRKGFPHVIYARLWRWPDLHKNELKHVKYCQYAFDLKCDSVCVNPYHYERVVSPGIDLSGLTLQSNAPSSMMVKDEYVHDFEGQPSLSTEGHSIQTIQHPPSNRASTETYSTPALLAPSESNATSTANFPNIPVASTSQPASILGGSHSEGLLQIASGPQPGQQQNGFTGQPATYHHNSTTTWTGSRTAPYTPNLPHHQNGHLQHHPPMPPHPGHYWPVHNELAFQPPISNHPAPEYWCSIAYFEMDVQVGETFKVPSSCPIVTVDGYVDPSGGDRFCLGQLSNVHRTEAIERARLHIGKGVQLECKGEGDVWVRCLSDHAVFVQSYYLDREAGRAPGDAVHKIYPSAYIKVFDLRQCHRQMQQQAATAQAAAAAQAAAVAGNIPGPGSVGGIAPAISLSAAAGIGVDDLRRLCILRMSFVKGWGPDYPRQSIKETPCWIEIHLHRALQLLDEVLHTMPIADPQPLD

Variants of: B1
Conditions: with ros1_human ROS1, P08922

| effect of a mutation on the interaction | Variant |
| --- | --- |
| with no effect | R361C |

Variants of: B1
Conditions: with ks6b1_human RPS6KB1, P23443
ks6b1_human RPS6KB1, P23443, sequence (P23443 whole entry, looked up): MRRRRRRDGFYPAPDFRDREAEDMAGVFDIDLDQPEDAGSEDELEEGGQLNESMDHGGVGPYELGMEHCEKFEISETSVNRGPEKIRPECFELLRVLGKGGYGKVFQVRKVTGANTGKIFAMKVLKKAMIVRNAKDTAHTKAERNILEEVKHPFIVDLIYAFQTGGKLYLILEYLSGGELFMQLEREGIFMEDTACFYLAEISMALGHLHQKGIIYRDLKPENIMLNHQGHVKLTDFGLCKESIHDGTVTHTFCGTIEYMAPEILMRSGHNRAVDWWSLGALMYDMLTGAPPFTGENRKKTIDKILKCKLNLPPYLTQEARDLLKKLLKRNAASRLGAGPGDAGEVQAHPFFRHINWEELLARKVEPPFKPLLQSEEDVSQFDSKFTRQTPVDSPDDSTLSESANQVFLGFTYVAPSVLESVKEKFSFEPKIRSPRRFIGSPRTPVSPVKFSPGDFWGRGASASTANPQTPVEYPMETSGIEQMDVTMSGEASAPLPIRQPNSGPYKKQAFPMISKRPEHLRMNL

| effect of a mutation on the interaction | Variant |
| --- | --- |
| with no effect | R361C |

Variants of: B1
Conditions: with runx1_human RUNX1, Q01196

| effect of a mutation on the interaction | Variant |
| --- | --- |
| with no effect | R361C |

Variants of: B1
Conditions: with ruvb1_human RUVBL1, Q9Y265

| effect of a mutation on the interaction | Variant |
| --- | --- |
| with no effect | R361C |

Variants of: B1
Conditions: with rxra_human RXRA

| effect of a mutation on the interaction | Variant |
| --- | --- |
| with no effect | R361C |

Variants of: B1
Conditions: with sdha_human SDHA

| effect of a mutation on the interaction | Variant |
| --- | --- |
| with no effect | R361C |

Variants of: B1
Conditions: with setb1_human SETDB1, Q15047

| effect of a mutation on the interaction | Variant |
| --- | --- |
| with no effect | R361C |

Variants of: B1
Conditions: with sf3b1_human SF3B1, O75533

| effect of a mutation on the interaction | Variant |
| --- | --- |
| with no effect | R361C |

Variants of: B1
Conditions: with skp2_human SKP2, Q13309

| effect of a mutation on the interaction | Variant |
| --- | --- |
| with no effect | R361C |

Variants of: B1
Conditions: with smad1_human SMAD1, Q15797

| effect of a mutation on the interaction | Variant |
| --- | --- |
| with no effect | R361C |

Variants of: B1
Conditions: with smad2_human SMAD2, Q15796

| effect of a mutation on the interaction | Variant |
| --- | --- |
| with no effect | R361C |

Variants of: B1
Conditions: with smad3_human SMAD3, P84022
smad3_human SMAD3, P84022, sequence (P84022 whole entry, looked up): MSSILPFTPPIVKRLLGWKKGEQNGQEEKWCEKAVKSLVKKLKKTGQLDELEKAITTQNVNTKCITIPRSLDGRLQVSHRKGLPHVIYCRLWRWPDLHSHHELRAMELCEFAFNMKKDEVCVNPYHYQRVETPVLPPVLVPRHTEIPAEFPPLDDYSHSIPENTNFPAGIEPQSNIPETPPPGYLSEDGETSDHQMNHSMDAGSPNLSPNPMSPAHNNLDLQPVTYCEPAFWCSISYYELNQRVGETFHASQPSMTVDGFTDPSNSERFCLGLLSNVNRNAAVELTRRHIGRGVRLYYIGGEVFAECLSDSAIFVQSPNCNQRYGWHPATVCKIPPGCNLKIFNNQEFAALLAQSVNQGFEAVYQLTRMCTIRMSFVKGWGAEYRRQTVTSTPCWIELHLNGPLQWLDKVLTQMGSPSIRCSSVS

| effect of a mutation on the interaction | Variant |
| --- | --- |
| with no effect | R361C |

Variants of: B1
Conditions: with smca4_human SMARCA4, P51532

| effect of a mutation on the interaction | Variant |
| --- | --- |
| with no effect | R361C |

Variants of: B1
Conditions: with snf5_human SMARCB1, Q12824

| effect of a mutation on the interaction | Variant |
| --- | --- |
| with no effect | R361C |

Variants of: B1
Conditions: with smo_human SMO

| effect of a mutation on the interaction | Variant |
| --- | --- |
| with no effect | R361C |

Variants of: B1
Conditions: with socs1_human SOCS1, O15524
socs1_human SOCS1, O15524, sequence (O15524 whole entry): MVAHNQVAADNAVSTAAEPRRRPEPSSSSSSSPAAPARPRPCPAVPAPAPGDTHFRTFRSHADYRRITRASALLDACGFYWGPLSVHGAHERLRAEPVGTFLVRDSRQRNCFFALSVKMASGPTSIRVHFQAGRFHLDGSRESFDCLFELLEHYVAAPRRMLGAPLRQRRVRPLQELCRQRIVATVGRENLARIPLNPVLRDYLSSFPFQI

| effect of a mutation on the interaction | Variant |
| --- | --- |
| with no effect | R361C |

Variants of: B1
Conditions: with sox10_human SOX10, P56693
sox10_human SOX10, P56693, sequence (P56693 whole entry): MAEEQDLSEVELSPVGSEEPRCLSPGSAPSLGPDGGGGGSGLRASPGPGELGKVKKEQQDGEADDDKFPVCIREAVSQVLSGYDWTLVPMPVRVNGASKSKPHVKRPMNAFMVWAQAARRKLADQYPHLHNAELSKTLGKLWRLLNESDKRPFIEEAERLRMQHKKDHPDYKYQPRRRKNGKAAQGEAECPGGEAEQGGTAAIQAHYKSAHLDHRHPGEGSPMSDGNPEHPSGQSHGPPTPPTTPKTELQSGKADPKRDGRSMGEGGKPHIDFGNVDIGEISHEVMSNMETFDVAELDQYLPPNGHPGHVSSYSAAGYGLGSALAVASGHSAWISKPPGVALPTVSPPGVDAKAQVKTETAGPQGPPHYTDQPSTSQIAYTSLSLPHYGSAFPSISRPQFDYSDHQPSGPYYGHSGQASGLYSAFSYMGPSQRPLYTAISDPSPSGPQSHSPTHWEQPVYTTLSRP

| effect of a mutation on the interaction | Variant |
| --- | --- |
| with no effect | R361C |

Variants of: B1
Conditions: with sox2_human SOX2, P48431

| effect of a mutation on the interaction | Variant |
| --- | --- |
| with no effect | R361C |

Variants of: B1
Conditions: with sox3_human SOX3, P41225

| effect of a mutation on the interaction | Variant |
| --- | --- |
| with no effect | R361C |

Variants of: B1
Conditions: with sox4_human SOX4, Q06945
sox4_human SOX4, Q06945, sequence (Q06945 whole entry): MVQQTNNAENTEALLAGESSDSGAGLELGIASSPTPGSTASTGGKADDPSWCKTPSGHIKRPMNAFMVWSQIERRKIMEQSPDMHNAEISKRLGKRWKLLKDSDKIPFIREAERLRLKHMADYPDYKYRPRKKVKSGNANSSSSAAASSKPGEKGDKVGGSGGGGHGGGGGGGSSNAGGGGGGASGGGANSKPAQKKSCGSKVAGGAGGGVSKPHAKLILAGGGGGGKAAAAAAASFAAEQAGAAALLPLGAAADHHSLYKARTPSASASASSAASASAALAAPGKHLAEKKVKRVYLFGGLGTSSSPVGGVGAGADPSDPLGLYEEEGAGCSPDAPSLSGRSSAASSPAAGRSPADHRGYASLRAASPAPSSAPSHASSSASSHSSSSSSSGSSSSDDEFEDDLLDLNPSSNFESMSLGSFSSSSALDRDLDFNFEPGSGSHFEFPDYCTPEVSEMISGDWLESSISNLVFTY

| effect of a mutation on the interaction | Variant |
| --- | --- |
| with no effect | R361C |

Variants of: B1
Conditions: with sox9_human SOX9, P48436
sox9_human SOX9, P48436, sequence (P48436 whole entry): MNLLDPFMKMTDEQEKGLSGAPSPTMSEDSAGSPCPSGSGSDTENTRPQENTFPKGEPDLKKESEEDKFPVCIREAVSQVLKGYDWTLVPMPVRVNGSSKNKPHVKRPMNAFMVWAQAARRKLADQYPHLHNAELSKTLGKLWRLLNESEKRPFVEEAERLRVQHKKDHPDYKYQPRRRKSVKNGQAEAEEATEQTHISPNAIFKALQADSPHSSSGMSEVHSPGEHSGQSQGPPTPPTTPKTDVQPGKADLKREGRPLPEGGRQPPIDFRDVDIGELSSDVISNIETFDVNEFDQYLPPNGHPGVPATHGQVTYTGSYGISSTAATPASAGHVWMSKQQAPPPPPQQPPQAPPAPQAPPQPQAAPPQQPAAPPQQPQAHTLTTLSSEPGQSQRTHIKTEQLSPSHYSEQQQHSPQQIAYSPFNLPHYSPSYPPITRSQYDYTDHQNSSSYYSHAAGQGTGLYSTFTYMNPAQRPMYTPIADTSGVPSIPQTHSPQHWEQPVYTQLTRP

| effect of a mutation on the interaction | Variant |
| --- | --- |
| with no effect | R361C |

Variants of: B1
Conditions: with spop_human SPOP

| effect of a mutation on the interaction | Variant |
| --- | --- |
| with no effect | R361C |

Variants of: B1
Conditions: with src_human SRC

| effect of a mutation on the interaction | Variant |
| --- | --- |
| with no effect | R361C |

Variants of: B1
Conditions: with stat3_human STAT3, P40763
stat3_human STAT3, P40763, sequence (P40763 whole entry): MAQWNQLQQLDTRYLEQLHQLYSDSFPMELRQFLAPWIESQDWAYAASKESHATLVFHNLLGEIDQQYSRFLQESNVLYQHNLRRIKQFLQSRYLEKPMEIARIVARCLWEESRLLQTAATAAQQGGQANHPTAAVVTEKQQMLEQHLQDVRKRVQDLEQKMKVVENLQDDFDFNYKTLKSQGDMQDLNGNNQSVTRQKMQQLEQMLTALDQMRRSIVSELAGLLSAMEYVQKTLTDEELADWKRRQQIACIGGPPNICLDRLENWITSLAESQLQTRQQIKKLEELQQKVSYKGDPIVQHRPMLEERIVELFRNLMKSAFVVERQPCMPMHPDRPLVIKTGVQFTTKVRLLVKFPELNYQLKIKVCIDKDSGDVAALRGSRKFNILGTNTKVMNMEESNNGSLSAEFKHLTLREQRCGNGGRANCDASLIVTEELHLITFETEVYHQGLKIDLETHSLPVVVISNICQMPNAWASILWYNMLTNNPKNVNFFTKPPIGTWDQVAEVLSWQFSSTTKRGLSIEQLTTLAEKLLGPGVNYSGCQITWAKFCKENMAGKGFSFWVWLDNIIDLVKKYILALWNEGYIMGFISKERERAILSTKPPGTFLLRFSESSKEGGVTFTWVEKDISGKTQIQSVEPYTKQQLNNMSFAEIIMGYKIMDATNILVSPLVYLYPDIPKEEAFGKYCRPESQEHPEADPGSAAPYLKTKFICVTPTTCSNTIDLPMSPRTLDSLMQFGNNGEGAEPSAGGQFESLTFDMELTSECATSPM

| effect of a mutation on the interaction | Variant |
| --- | --- |
| with no effect | R361C |

Variants of: B1
Conditions: with stk38_human STK38, Q15208

| effect of a mutation on the interaction | Variant |
| --- | --- |
| with no effect | R361C |

Variants of: B1
Conditions: with ksyk_human SYK

| effect of a mutation on the interaction | Variant |
| --- | --- |
| with no effect | R361C |

Variants of: B1
Conditions: with eloc_human ELOC

| effect of a mutation on the interaction | Variant |
| --- | --- |
| with no effect | R361C |

Variants of: B1
Conditions: with tfe2_human TCF3, P15923

| effect of a mutation on the interaction | Variant |
| --- | --- |
| with no effect | R361C |

Variants of: B1
Conditions: with tead1_human TEAD1, P28347

| effect of a mutation on the interaction | Variant |
| --- | --- |
| with no effect | R361C |

Variants of: B1
Conditions: with tead2_human TEAD2, Q15562
tead2_human TEAD2, Q15562, sequence (Q15562 whole entry): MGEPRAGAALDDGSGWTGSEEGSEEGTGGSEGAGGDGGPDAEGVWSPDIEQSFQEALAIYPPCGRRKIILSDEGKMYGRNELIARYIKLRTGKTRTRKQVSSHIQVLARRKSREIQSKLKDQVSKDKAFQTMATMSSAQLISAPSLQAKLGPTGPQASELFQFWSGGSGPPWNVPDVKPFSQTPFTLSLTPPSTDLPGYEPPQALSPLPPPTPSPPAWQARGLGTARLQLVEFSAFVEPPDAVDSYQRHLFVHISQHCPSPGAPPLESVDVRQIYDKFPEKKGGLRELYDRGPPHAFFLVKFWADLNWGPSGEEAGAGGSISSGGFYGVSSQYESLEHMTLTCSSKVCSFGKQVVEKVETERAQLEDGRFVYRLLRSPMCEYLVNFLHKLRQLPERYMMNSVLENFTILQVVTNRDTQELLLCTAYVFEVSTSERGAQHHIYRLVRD

| effect of a mutation on the interaction | Variant |
| --- | --- |
| with no effect | R361C |

Variants of: B1
Conditions: with tead3_human TEAD3, Q99594

| effect of a mutation on the interaction | Variant |
| --- | --- |
| with no effect | R361C |

Variants of: B1
Conditions: with tgfr2_human TGFBR2, P37173

| effect of a mutation on the interaction | Variant |
| --- | --- |
| with no effect | R361C |

Variants of: B1
Conditions: with tnr14_human TNFRSF14, Q92956

| effect of a mutation on the interaction | Variant |
| --- | --- |
| with no effect | R361C |

Variants of: B1
Conditions: with tpx2_human TPX2, Q9ULW0
tpx2_human TPX2, Q9ULW0, sequence (Q9ULW0 whole entry): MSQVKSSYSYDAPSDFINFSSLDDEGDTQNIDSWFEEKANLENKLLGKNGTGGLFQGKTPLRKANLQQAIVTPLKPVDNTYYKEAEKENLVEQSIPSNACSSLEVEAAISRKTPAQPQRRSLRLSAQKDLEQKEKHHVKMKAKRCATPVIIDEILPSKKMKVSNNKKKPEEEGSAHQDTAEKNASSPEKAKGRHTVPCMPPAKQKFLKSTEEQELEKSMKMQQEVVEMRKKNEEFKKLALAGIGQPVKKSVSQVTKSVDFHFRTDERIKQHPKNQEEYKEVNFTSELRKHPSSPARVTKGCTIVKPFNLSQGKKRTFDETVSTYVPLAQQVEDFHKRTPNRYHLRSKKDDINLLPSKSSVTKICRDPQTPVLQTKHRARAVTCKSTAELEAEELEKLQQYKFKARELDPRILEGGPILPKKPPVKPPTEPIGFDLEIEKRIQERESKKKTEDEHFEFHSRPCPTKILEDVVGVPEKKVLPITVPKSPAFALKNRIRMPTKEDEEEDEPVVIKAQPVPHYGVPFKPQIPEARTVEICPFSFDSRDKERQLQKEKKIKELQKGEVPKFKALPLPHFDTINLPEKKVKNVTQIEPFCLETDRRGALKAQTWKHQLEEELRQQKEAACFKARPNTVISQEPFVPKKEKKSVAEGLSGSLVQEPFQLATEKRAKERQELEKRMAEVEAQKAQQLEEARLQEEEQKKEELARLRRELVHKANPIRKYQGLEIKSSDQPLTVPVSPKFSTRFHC

| effect of a mutation on the interaction | Variant |
| --- | --- |
| with no effect | R361C |

Variants of: B1
Conditions: with trrap_human TRRAP

| effect of a mutation on the interaction | Variant |
| --- | --- |
| with no effect | R361C |

Variants of: B1
Conditions: with tsc2_human TSC2, P49815

| effect of a mutation on the interaction | Variant |
| --- | --- |
| with no effect | R361C |

Variants of: B1
Conditions: with tshr_human TSHR

| effect of a mutation on the interaction | Variant |
| --- | --- |
| with no effect | R361C |

Variants of: B1
Conditions: with wt1_human WT1, P19544

| effect of a mutation on the interaction | Variant |
| --- | --- |
| with no effect | R361C |

Variants of: B1
Conditions: with wwtr1_human WWTR1, Q9GZV5
wwtr1_human WWTR1, Q9GZV5, sequence (Q9GZV5 whole entry): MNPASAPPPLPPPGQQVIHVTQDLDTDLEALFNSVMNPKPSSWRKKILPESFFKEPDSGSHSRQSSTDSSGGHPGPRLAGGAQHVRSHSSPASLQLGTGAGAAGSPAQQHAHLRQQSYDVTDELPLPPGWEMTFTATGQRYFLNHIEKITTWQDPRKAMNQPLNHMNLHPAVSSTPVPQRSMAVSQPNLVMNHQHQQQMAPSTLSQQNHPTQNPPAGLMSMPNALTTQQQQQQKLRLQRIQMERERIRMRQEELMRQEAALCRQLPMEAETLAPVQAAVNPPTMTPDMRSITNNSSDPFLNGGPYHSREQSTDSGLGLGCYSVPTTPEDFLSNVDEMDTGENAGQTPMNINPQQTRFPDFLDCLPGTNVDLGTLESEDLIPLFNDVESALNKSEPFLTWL

| effect of a mutation on the interaction | Variant |
| --- | --- |
| with no effect | R361C |

Variants of: B1
Conditions: with xpo1_human XPO1, O14980

| effect of a mutation on the interaction | Variant |
| --- | --- |
| with no effect | R361C |

Variants of: B1
Conditions: with 1433b_human YWHAB

| effect of a mutation on the interaction | Variant |
| --- | --- |
| with no effect | R361C |

Variants of: B1
Conditions: with 1433e_human YWHAE

| effect of a mutation on the interaction | Variant |
| --- | --- |
| with no effect | R361C |

Variants of: B1
Conditions: with 1433z_human YWHAZ

| effect of a mutation on the interaction | Variant |
| --- | --- |
| with no effect | R361C |

Variants of: B1
Conditions: with gata2_human GATA2, P23769

| effect of a mutation on the interaction | Variant |
| --- | --- |
| decreasing interaction strength | R361C |

Variants of: B1
Conditions: with smad3_human SMAD3, P84022
Remark: another data set of the same source

| effect of a mutation on the interaction | Variant |
| --- | --- |
| decreasing interaction strength | R361C |

Variants of: B1
Conditions: with cdk6_human CDK6, Q00534

| effect of a mutation on the interaction | Variant |
| --- | --- |
| decreasing interaction strength | R361C |
